The numbers were not newly measured in paper PMC7340539, which cites them from elsewhere.

The Kd is the equilibrium constant for the complex coming apart.

This series concerns the target CD47 (Homo sapiens) (UniProt Q08722).
Chain of UniProt Q08722 (Q08722 19-323): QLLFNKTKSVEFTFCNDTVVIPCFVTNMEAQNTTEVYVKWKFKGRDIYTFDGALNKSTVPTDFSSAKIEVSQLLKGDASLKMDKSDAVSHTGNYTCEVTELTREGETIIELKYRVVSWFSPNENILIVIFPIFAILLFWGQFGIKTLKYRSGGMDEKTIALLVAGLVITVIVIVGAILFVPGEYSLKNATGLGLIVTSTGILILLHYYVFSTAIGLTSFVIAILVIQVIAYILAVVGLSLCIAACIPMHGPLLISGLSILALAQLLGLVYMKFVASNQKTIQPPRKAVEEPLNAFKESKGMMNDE

As for SIRPα ECD (from UniProt P78324), the dissociation constant Kd is 2000 nM.
